Measurements as given in patent publication US20110003886, “SELECTION OF RNA APTAMERS AS ANTI-MALARIA AGENTS” (FORSKARPATENT I SYD AB, published 2011).

Tests used:
[1] = system: PfEMP1 on FCR3S1.2-infected erythrocytes (Plasmodium falciparum); experiment: cell_activity; details: 2'-F on all pyrimidines (C and U) [positions count without the 20-nt 5-prime fixed region]; rosette rate about 35% of control at 258 nM; 1 mM MgCl2
[2] = system: GST-DBL1alpha (PfEMP1 DBL1alpha) (Plasmodium falciparum); experiment: competition; details: 2'-F on all pyrimidines (C and U) [positions count without the 20-nt 5-prime fixed region], 30-fold molar excess unlabelled RNA
[3] = system: DBL1alpha-His (PfEMP1 Duffy binding-like domain 1alpha, strain FCR3S1.2) (Plasmodium falciparum); experiment: pulldown; details: 2'-F on all pyrimidines (C and U) [positions count without the 20-nt 5-prime fixed region], 40 nM RNA, 350-400 nM protein, Ni-NTA beads, PBSM, yeast RNA, 37 C, RNA assayed as 90 nt with 2x20 nt flanks
BSA = BSA (UniProt P02769 P02769:25-607); experiment: EMSA; 10 ug BSA negative control; details: label: 32P; complex secondary structure predicted by mfold
Description: To study RNA/DBL1α^His interaction in solution a number of EMSA experiments were conducted. The protein used for these experiments was freshly eluted from the Ni-NTA beads to avoid long storage and freezing in solution to prevent precipitation of DBL1α^His The RNA was internally labelled with ³²P-ATP and migration after incubation with DBL1α^His or BSA was analysed on 10% native polyacrylamide gel. The upper band (177 nucleotide long RNA) seen in FIG. 4 is an incorrect product of the T7 transcription that is derived from a longer transcription template. This template is a product generated in the previous PCR reaction (binding of PCR primer to en external T7 site in the TOPO-vector). […] Throughout the EMSA experiments conducted, no real band shift was observed (RNA molecule bound to protein with slower migration).
FIG. 5. Mobility shift assay of selected clone e05. ˜30 ng internal ³²P-[αATP] labelled RNA was incubated with ˜300-400 ng DBL1α^His for 10 min. and loaded on 10% TBE-buffered PAA gel (+) together with negative control (−) incubated in the presence of 10 μg BSA.

BSA, sequence (P02769 25-607, one chain of several): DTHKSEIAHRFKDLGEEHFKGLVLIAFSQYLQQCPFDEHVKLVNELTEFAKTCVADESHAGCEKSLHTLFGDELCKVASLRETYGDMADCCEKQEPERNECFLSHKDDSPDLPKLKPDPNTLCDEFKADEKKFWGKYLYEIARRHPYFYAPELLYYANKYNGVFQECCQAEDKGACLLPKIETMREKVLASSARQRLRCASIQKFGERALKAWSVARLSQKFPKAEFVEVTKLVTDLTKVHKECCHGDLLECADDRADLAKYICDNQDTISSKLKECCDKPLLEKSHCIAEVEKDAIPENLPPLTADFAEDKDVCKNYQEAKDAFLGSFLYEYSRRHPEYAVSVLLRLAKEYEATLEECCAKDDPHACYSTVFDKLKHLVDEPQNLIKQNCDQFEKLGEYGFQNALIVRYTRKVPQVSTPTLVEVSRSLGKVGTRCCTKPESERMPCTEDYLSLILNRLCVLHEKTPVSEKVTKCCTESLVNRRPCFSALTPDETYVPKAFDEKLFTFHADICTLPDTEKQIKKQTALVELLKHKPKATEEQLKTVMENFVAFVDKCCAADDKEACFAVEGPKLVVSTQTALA

| Molecule | activity (nM (complete rosette disruption)) [1] | binding signal (% decrease of labelled RNA recovery) [2] | binding signal (% RNA recovery) ([3]; clone also listed as SEQ 6/12) | binding signal (% decrease of labelled RNA recovery) ([2]; 60% decrease at 45-fold, no decrease with 30-fold e02 or pool 0) | binding signal (% RNA recovery) ([3]; clone also listed as SEQ 4/10) | binding signal (% RNA recovery) ([3]; clone also listed as SEQ 5/11) | binding result (BSA) |
| --- | --- | --- | --- | --- | --- | --- | --- |
| GGGAAUUCGAGCUCGGUACCCUUCGAACGGCCCUGGUUGUUGGUUUUAAUUCAUUUAUCCGCGUGGUCACGGUCGUAGCAAGCUCUGCAGUCG [e05] | 387 | 40 | 70 | – | – | – | – |
| GGGAAUUCGAGCUCGGUACCUGCCAACCUUCGAUGCAAGAUAAUACUUUUGAUGGUGUAGUCGUAUUGUUCGUAGCAAGCUCUGCAGUCG [d12] | 387 | – | – | 40 | 70 | – | – |
| GGGAAUUCGAGCUCGGUACCUCAUGUGCCAGUGUUUGAAAAAACGCGUUGAUUGCUGGUGUGGUGAGCUAGUCGUAGCAAGCUCUGCAGUCG | 387 | 40 | – | – | – | 70 | – |
| e05 (ssRNA, 2'-F on all pyrimidines (C and U) [positions count without the 20-nt 5-prime fixed region]) RNA: GGGAAUUCGAGCUCGGUACCCUUCGAACGGCCCUGGUUGUUGGUUUUAAUUCAUUUAUCCGCGUGGUCACGGUCGUAGCAAGCUCUGCAGUCG | – | – | – | – | – | – | no binding |
